System: Saccharomyces cerevisiae
Assay: transcriptional activation domain activity (GFP:mCherry ratio, weighted mean of sorted bins, harmonized to initial dataset scale) (arbitrary fluorescence ratio units); higher = stronger transcriptional activation
Details: beta-estradiol 1 µM; induction time 4 h
Summary of the method: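 The activation activity of each tile is the read-weighted mean of bin median fluorescence, averaged across its barcodes and mapped linearly onto the scale of the initial dataset. Tiles were fused to an estradiol-inducible synthetic transcription factor, barcoded, and integrated at URA3 in yeast diploids carrying a GFP reporter. Induction used 1 uM beta-estradiol in SC for 4 hours at 30 °C, after which cells were sorted into 8 GFP:mCherry bins, and any tile with fewer than 50 reads was dropped.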

Sequence | transcriptional activation domain activity
KRGRPAKKAQEEVEVEEAAPAKRGRKAVAKEEPAKKETKAKPTTKSRGTKRAA | 38600
MGDCIKVHVSFHCRFLVFIYTHTFFLFLFYSSSIVFCFIYIYIFPFISFFWGL | 36000
VNDIYDSSRSRACNACRNSKVRCEQPRPDHPCKRCAKARRECVSSTRGHKRRR | < 6570
ADANGGGLKAGGRVTIAIVRQAILEATSSPLQVYLKTCPLASKVFLVALLVRC | 58100
MNLDTSPDFVHFFLGFTGGVSILDLYCLFMYTFFDMIQLQLNPFSDFFFPFSL | 62100
RNVIRGCRKPLSSRYVFLMSVTRLVIPLYFYVCPYNIIALKPSKWIWLLVLYV | 62600
TMWHCMDLLFCVAPGRLIRETASGLYVHHCFECGTKLEPQPLHSLTITAYHLA | 52300
MQWAGLMFFRCSICLLAFSVILMFGLVWYFFALCVVNRLSTICFVFWMLLSFL | 42700
MGVLLFGFWVCCCTKLLFCHYCFFFFLFLHFFFLATVLYIVNCCMLLLVLLLG | 67700
QAHPPVQVRKTSHKAAEQKRRDSLKTTFDDLRGTASAAAPPVGRHGRACAPGA | 35300
EFNDIERSVYEIVRKRFIARINSFAAAGQLEKSYTNIFVMLLRLRQLTGHILT | 48200
LKHGMMRLDFLCKFSMYGGIERDNQFVKKATGVAFPCVFVLRCLKRPVLTESE | 55100
ERQGRGQREERRREDHSRTRVPQRQGQEQREERRREDQYSRQEQQSQGLGQRK | 42100
RFISTRSFLFIFLFDSFFFFSFFFLSLFFFFISFFSFSSFFFFIFTLYLSRAL | 28300
MVAVVEVWVGEGVGEFWHLVKVWEGFLKLEYPVFFFDVWFFYDPFFCALGFFI | 79300
VALDHLYLDEEQTHAIKSLSSLYIKVVIIFIKYLLVHRKIKQRLVRSWAYCYD | 57900
MVLPYVLFNNTRQLLKVWYESLKAIVLLYQKIKIIFRYIFMYTLASLLLLFYF | 45300
DETAPATEEASKEGEAAEEAAPAAEAEETKTEEAPNKEEGTKRRSASRKRVSI | 37200
GRWSYLRTSEMILTFFYKNIMWTLVLFWYQLMCGFTGTMMFDYSYITLYNLVF | 46300
MYLAVHWFYISGCTHHIFMIFLFMSKFLCLLMLLLSSCVVLSSFRTIFVLSFS | 62700
NVSDAPRIEPLPSLNDDDIEKILQPNDIFTTDRTDASTTSSTAIEDIINPSLD | 61300

Sequence | transcriptional activation domain activity
LSLWFLILGALSTTSSFFNIFILQWGVIRCCSVIGPGPCTESILGITQLAVQF | 51100
MNITTVRALGLYILFHQYLIMIEDFICGFLIWYLRYFFYFTYLLCTVISYLSC | 78500
MGRDSSLPYFNSPSFWVAFFWSGAGLFFSFFTGFIYFPEQIFFPLFFFLFFED | 58800
PSTSPTPSSACAPSAASSTRSPPSTPARGGATSGTCCASACAASTPCVTRYTG | 11500
MARQLYSPFFIFLYLPSCIYKNILFSSFLFFLTSLIGIFLHPFFNIVCFICQM | 58500
NLISLPLLKLCSEFAHVKWYEVLSHIVCFGFNGPTKPRSNNLVSLNLQCEHYK | 48400
LILNCYWIVLVAFTFNMEVEYCKIVSVVGKLSSKFLGRVQVFLLLFMLMLFLV | 50600
LYLLIFFPVLLWRYLCIGLDSVLCCHIGFHFPYFMCYFFAIMSVSRSFFYSCI | 50700
MLMLLGKHVLLLIKMISLMDPFQVNILLHRNNPFPAVSFFFYYSFCLFHILHF | 55200
FKLNTVTNLNEIDFTNIFTKSPHPHSGSTHPRQVFDQLDDCSSILFSPLTTNT | 67700
SLHLCFSMCLTMIGYIILIKIDTLEHKAVAYFACFLLTSGAFAPSCLFHSWHN | 33300
YLAYCWQPDISWCPNLTLLNHWYNLTPYWFILMFIWNNLSCILMMINMIQLYF | 67800
ICIPLPFQTLVCSHIVLTPLFYPLFCTPLDIFYVSNYSCLVLVLSLPFHFFLH | 39400
MASALLDFPYLHLGIPSFLRVNLFLNIHVHFFFVHFCLSPSVRFIFFYFFLYL | 50300
RELEKREREREEREREERERELEKREREREQRGRELEKRERRGRRGSESWRRG | 26100
LYVSLHAVVGNVAEFYFVRYGLALVCALCQTIMFQVTSVTLNGRIGLFFLIAT | 45400
MGWGAFWRWLVGCSLVLYVFYPLLSYLRCFILVFRFVYIYLPLTDCFLLFISK | 53300
MAPKAPEASPPKRGRGRPRKAESEKKTKAYEPTGRPRGRPKGSGGVKKSVAAT | 19600
EDENKSKEETQEKKTNEPELNENNKDIAKKGEEEEEEEEADKDNNKTKKKKKN | 27500
MPILMQFCFIMALNGICNSMHLYAAYNLRTHVLARVFWSILWLLLRSLCSAGW | 70700
GTSGTSVASRPSITPRAFGSSRSSRPSARSGSPSSRTAPSTPAPASSTRRTRP | 31100

Sequence | transcriptional activation domain activity
AFLLFLIYLTFFCWVCFATSATWVWSEILSDNQYTESFMPINDVLLAVLSGII | 38700
MDLGSAVPAPRRRIRDRTSQACNRCRATKIRCDNQAPACSPCRAKKLECIRDP | 37600
ELRNHMSAIIDICWGACGTYKGVELWLEWDRNDNVPFHDSLWRVVRFVIFVNH | 63200
FAGLSYFVYDLHTMLSSIVIICVIVADFLYFGSILLPALWLECPYRVPLLFRP | 71900
RLSTFYNLNLIRVLFRFLFTLPLLILAHDFLLMLGALGCFVSSCITLLIFFPR | 63000
FLDLVLPHVGRWSDFVAYIPGVTVVEVNYLLRRLGSPKCGPALLLEKLHLFFF | 54400
VQFVLDLIVMVGVAGYNTVAQLYFPQLPHHKCSNSAATGSFGLFLICCYLVLF | 53700
PIYNLHFAPSNEYWFSFSYLPGQGQCTLDSSTTSIGQTRYFIWSLSLWRRIFL | 70200
MKILRLYLTKLPFLARPILTQLLQESLFRYGIVRELGIYLRQNYFDNTGRFTL | 83400
RLQRDGQAGAGRGEARGGRGPVAGGQGAQHAGPVRRHRRQRRAGHLHGRKQHQ | 32800
SSSSASSSSASARGRKTQAARSTKKRKRRDAVSSANKDEDNDSDASNDEDEDE | 27500
MTVTPVNGYGWSRANKIGWTVFYISLWGYSNCSYFFPLPLYFSYVFFFFPFYP | 42200
LYVIIFPILYFSLLLFYFFSSCGGVGWWAVGWHGVLCFFVLLGWVGLGGCCLC | 35900
MMGLSLGFKCCFQMLSLFSILFSFHLVLRLLSFPFFSCSYCILYRFLFFCWGW | 24500
WLSHSQKKHCELCKTPFRFTKLYAPNMPKALPTHIFLSHMAKYILRNLLVWLR | 61200
LWELLLNILKENGAKEKCILPCIVDFLPKNLVLVHCIHAYLHFRILVGLQCMT | 33700
FNIVAFGIIILDFWGMIGIWTQKFGFHHVWEVWLYQVYYGLFVCPWYSYSQIM | 80200
LFFLLLPLLLHVIRIKSNMASSWVMVPLDFQPRHLIPLVENSHCLRNLQIFWL | 71300
GEGESADERRRRRHKRKRDGSDEEDEEERGRKRSRRSKGSDDDRSGDDDEDDE | 25600
RSSLSSPPCPRSRRRMRVRSSTTTSTSPPARSSSADRTRPTSTTTAARPPACP | 22000
DERRLVWPSRLTFMKVVFLLNRYVPFAGSFGMMYVLTLVNPVTQSDFCKHGFL | 54900

Sequence | transcriptional activation domain activity
SNGTNNSGNMNTNADYESFFNTGTNNSNSNQNPYFLSSRNNSLKFNPEDFDFQ | 59100
MNDCSAGCAGGQFPVGQDGLICIVEFNTITCVSTGSIVFLMLHSWLYFVLLIF | 71600
KVAEPGSKVSLRAPVDPNAPAPKPKKGKDGKEIKEEPKMIEKVVDSIYLHVQT | 41000
MPPTSSSVSRSSFSRGRTSSCRPRYSSSRPTSSSTSGSSRRTARSSPSASPRS | 11000
MGFKTSMGWICLSQVSFFDCNLLYCVVFFIFSSKSLATSPFLSLVLLFSLYPL | 29200
MLQRFWYLALLAKRRTDLFSFKLSCLELLCFLPISMVVCHIWVIMGPLFFILF | 50800
LFYNQVSKLLIINCYEASYMCVIYTVGSIGNIGSRCQNLRTGSTFKTLVKYID | 54000
DADSAQVAGECVVCQDEEANVVIVECGYVSLIIHLTLHRFIVLASLVISHYAQ | 63900
AAPKAKATTAKAKATTTKKATTAKASTTKKAAAAKPKANASKPRKAAAATAAA | 38600
HINYFSLSLIIFYFLIFFISNYLLIKFLFFNYFLPKWWSSRPLRSMIYSLFSI | 42500
ESHLVPEASKIWKPLDGYWMPSWMKYQIFIPLFMLQLLNLFWYFLIWHILIRA | 44900
MSWQKVHSLFFLYFILPHGGFLFLVIRNIFFFFTYDLVLLWSFKFLLHLYVIF | 59800
SSLMQYTLGATIGFVQSLEVRTQVLHLLVKLFQSLPQPDHFSIAQCYVYLNAP | 57200
SIKVTRYLLNLAHCTNDQWFYYIVFFFAELVVYTIMIVAIGSILFQWRFFCLV | 52100
MSVFILFVGCFYCMVCLFSPSYMWFFCGVISILFLIFPFLHDFQLYFFFGGGH | 41700
PARAHGNRDDERGGGVRGGVPADARATLARRVQPHPLARARARVCAGAAVRGE | 48600
VCFMGVLIGLLPGTWLCYGSDVCVKGLSSSIISMQLGLLGSLLLILKLVIGVA | 61700
AMDGVAQLHALLGGCHTRLAGLVFSTFEAAVLLVYLCVDPMFPRDCPHQHVPP | 57400
SSKHDYKRSRRSKTKDEDDDDDDEDRKRRKRRKEREHSKKKEKEERRSVLTGK | 30300
KAGCGYILGHINIFQPINWIFVVSAKVFPVDYVLFLLLVFFLFSASVVGVATV | 32300

Source: the supplement of paper PMC12636428
